Experimental data published in IntAct's records for PubMed 19141279.

B1: Ras-related protein Rab-6A (Homo sapiens), P20340-1 (parent)
chain: MSTGGDFGNPLRKFKLVFLGEQSVGKTSLITRFMYDSFDNTYQATIGIDFLSKTMYLEDRTVRLQLWDTAGQERFRSLIPSYIRDSTVAVVVYDITNVNSFQQTTKWIDDVRTERGSDVIIMLVGNKTDLADKRQVSIEEGERKAKELNVMFIETSAKAGYNVKQLFRRVAAALPGMESTQDRSREDMIDIKLEKPQEQPVSEGGCSC
partner: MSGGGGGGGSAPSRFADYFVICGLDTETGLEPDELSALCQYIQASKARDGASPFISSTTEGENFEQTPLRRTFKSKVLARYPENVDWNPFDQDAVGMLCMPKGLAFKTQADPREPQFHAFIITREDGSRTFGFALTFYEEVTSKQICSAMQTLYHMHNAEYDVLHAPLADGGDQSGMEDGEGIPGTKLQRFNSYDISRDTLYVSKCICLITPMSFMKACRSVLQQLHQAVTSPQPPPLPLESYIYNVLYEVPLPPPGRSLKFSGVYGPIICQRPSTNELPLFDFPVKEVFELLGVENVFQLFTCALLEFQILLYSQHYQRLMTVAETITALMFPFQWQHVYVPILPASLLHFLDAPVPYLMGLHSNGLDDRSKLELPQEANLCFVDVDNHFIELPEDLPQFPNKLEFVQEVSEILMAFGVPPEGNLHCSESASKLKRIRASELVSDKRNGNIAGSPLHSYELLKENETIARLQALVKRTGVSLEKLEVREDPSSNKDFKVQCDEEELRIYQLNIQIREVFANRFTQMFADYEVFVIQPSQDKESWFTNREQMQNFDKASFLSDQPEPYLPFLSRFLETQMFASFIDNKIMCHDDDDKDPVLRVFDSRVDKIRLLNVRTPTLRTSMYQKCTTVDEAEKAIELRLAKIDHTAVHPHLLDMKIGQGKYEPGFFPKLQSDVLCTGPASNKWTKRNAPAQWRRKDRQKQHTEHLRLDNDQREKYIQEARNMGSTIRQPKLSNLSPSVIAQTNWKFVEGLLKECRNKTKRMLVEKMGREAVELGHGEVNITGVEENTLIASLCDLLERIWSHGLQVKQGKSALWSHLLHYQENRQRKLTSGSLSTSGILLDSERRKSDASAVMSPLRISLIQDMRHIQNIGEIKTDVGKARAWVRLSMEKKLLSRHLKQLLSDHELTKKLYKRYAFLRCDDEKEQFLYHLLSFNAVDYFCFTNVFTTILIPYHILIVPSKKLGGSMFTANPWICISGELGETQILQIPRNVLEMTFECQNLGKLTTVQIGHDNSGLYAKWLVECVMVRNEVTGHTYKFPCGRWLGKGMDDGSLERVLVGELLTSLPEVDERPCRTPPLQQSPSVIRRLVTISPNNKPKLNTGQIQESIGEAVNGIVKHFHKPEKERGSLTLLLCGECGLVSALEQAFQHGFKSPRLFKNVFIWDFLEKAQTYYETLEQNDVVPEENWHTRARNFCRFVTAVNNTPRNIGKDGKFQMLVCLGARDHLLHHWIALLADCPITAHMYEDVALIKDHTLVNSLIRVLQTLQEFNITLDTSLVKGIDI

Variants of: B1
Details: with den5a_mouse Dennd5a

Variant | effect of a mutation on the interaction
I46E | disrupting interaction
